The text below walks through data of the RNAGym collection of RNA variant scans (doi:10.1073/pnas.2313332121).

B1: TPR t1 (parent)
chain: GACCAAUCUGCCCUCAGAGCUCGAGAACAUCUUCGGAUGCAGAGGAGGCAGGCUUCGGUGGCGCGAUAGCGCCAACGUCCUCAACCUCCAAUGCAUCCCACCACAUGAUGAUGCCUGAAGAGCCUUGGUUUUUUG

The data set covers variants of B1. Nature of the data set: polymerase ribozyme fitness, log enrichment relative to wild type (log ratio); higher = more active; in vitro selection for triplet polymerase activity. In a few lines:
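Input and output libraries were sequenced on Illumina after a single in vitro selection round, run in triplicate on PCR-built, transcribed mutant libraries of each subunit of a heterodimeric triplet polymerase ribozyme. Selection annealed libraries to a biotinylated primer, the partner subunit and triplets, incubated them frozen at −7 °C, then gel-excised extended constructs for streptavidin-bead capture and RT-PCR. Genotypes with ≥10 input reads and ≥1 read per output were kept. Fitness is the logarithm, taken in base 2, of genotype enrichment divided by wild-type enrichment, using inverse-variance-weighted replicate averages.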
Turning to C34U A83C, the “polymerase ribozyme fitness (log ratio)” value was -5.74.

In the case of C15A G52U, the “polymerase ribozyme fitness (log ratio)” value is -3.6.

C70U C101A: the “polymerase ribozyme fitness (log ratio)” value was -1.9.

Turning to A6G C97U U112A, the “polymerase ribozyme fitness (log ratio)” value was determined as 1.48.

On to C15U A100U G117U, for which the “polymerase ribozyme fitness (log ratio)” value is -2.41.

Consider G110U G117C, for which the “polymerase ribozyme fitness (log ratio)” value is -5.42.

For A46G C97U U130G, the “polymerase ribozyme fitness (log ratio)” value was -2.03.

In the case of G35U C40U G61A C124U, the “polymerase ribozyme fitness (log ratio)” value is -4.87.

C40G A41U G45A A91U: the “polymerase ribozyme fitness (log ratio)” value is -4.47.

C53G C72U: the “polymerase ribozyme fitness (log ratio)” value is -1.04.

Take A41G A46U G63A C82U U87G: the “polymerase ribozyme fitness (log ratio)” value is -2.41.

As to A37C A121U, the “polymerase ribozyme fitness (log ratio)” value was 1.62.

U33A C62G C73A U78G: the “polymerase ribozyme fitness (log ratio)” value was -5.54.

Consider G10A C13G C22G A37C C72A A95U, for which the “polymerase ribozyme fitness (log ratio)” value is -4.63.

With A50C C82U G117U, the “polymerase ribozyme fitness (log ratio)” value was -2.93.

On to A50U A111G, for which the “polymerase ribozyme fitness (log ratio)” value was -0.837.

As for G57A C114U, the “polymerase ribozyme fitness (log ratio)” value is -3.27.

Regarding G39C G48U C73A A100U, the “polymerase ribozyme fitness (log ratio)” value was -2.09.

G65A C88U: the “polymerase ribozyme fitness (log ratio)” value was -5.19.

For the variant C8G C12A C20U A37C U92A G113U, the “polymerase ribozyme fitness (log ratio)” value was -1.85.

Regarding C49G C56A, the “polymerase ribozyme fitness (log ratio)” value was -2.63.

G63C G77C: the “polymerase ribozyme fitness (log ratio)” value was -2.42.

Consider A2G G45U C82A, for which the “polymerase ribozyme fitness (log ratio)” value is -2.5.

For the variant G48U A84G U116C, the “polymerase ribozyme fitness (log ratio)” value is -1.79.

For U38G C88U, the “polymerase ribozyme fitness (log ratio)” value was -0.426.

C56U C70U C82G C124A U130C: the “polymerase ribozyme fitness (log ratio)” value was determined as 0.377.

For the variant C13U G122A, the “polymerase ribozyme fitness (log ratio)” value came out at 0.447.

Take A6U G71A A83G: the “polymerase ribozyme fitness (log ratio)” value is -1.85.

As to C3U G45C, the “polymerase ribozyme fitness (log ratio)” value was -2.34.

For the variant A26U A37U G52U A90U U112C, the “polymerase ribozyme fitness (log ratio)” value is -6.53.

Consider C72G C85G A100C A121C, for which the “polymerase ribozyme fitness (log ratio)” value is -1.55.

In the case of C89G C123G, the “polymerase ribozyme fitness (log ratio)” value is 0.45.

Take G48U G69A: the “polymerase ribozyme fitness (log ratio)” value was -3.02.

With C8U C88U A121C, the “polymerase ribozyme fitness (log ratio)” value was found to be 1.33.

With A6U U78A C115G U116G, the “polymerase ribozyme fitness (log ratio)” value was -2.95.

Consider G117C U130G, for which the “polymerase ribozyme fitness (log ratio)” value was -3.7.

On to C12G C40G, for which the “polymerase ribozyme fitness (log ratio)” value is -1.2.

For the variant A5C C12U G48A, the “polymerase ribozyme fitness (log ratio)” value was -0.983.

Turning to C70U G122A U126A, the “polymerase ribozyme fitness (log ratio)” value was -3.62.

On to U30G A95C U96C A105U A111C G120C, for which the “polymerase ribozyme fitness (log ratio)” value was -6.71.

For the variant U33G C34G C72G G110A, the “polymerase ribozyme fitness (log ratio)” value is -6.68.

In the case of U9C U78C, the “polymerase ribozyme fitness (log ratio)” value was found to be 0.403.

Regarding A5C G63A G69U C101U, the “polymerase ribozyme fitness (log ratio)” value is -1.54.

As for A43U U96A A121U, the “polymerase ribozyme fitness (log ratio)” value stood at 0.867.

For A84U G110U, the “polymerase ribozyme fitness (log ratio)” value is -1.34.

As for G44U C79G A91C C115A, the “polymerase ribozyme fitness (log ratio)” value was -5.13.

Consider U7C C56A G71U A90C, for which the “polymerase ribozyme fitness (log ratio)” value was -3.95.

As to C40A A90C G93U, the “polymerase ribozyme fitness (log ratio)” value was -1.13.

As to C8U C72G G93A, the “polymerase ribozyme fitness (log ratio)” value is -0.0349.

Consider C13G G44U C82A, for which the “polymerase ribozyme fitness (log ratio)” value was -3.4.

For C56U G69U A90C C94A C104G G113U G122A, the “polymerase ribozyme fitness (log ratio)” value is -6.84.

U7G G71C: the “polymerase ribozyme fitness (log ratio)” value is -0.641.

On to C20G C62U U125A, for which the “polymerase ribozyme fitness (log ratio)” value was -5.73.

With A18U U55G C82G G120A, the “polymerase ribozyme fitness (log ratio)” value was -3.38.

For A6C A100U, the “polymerase ribozyme fitness (log ratio)” value is -0.814.

On to C13U G45A G51U C115A, for which the “polymerase ribozyme fitness (log ratio)” value was -3.13.

Consider C13U A121U, for which the “polymerase ribozyme fitness (log ratio)” value came to 2.03.

Turning to U38C A43U, the “polymerase ribozyme fitness (log ratio)” value is -2.21.

Take C13G G45U C89A G120U U130A: the “polymerase ribozyme fitness (log ratio)” value is -3.41.

On to C56A A100G C102U U112C G127C, for which the “polymerase ribozyme fitness (log ratio)” value was -2.2.

In the case of C53U U78A A103U A121C U132C, the “polymerase ribozyme fitness (log ratio)” value was -4.38.

Take A29G G48U G57C C73U: the “polymerase ribozyme fitness (log ratio)” value is -1.71.

For U7A C12G C89G A111C, the “polymerase ribozyme fitness (log ratio)” value was -2.35.

Take A29U A46G C115G: the “polymerase ribozyme fitness (log ratio)” value is -2.96.

On to A37G C49G C82U, for which the “polymerase ribozyme fitness (log ratio)” value is -0.637.

With G42A U78C, the “polymerase ribozyme fitness (log ratio)” value was -1.87.

As for U9A C114A, the “polymerase ribozyme fitness (log ratio)” value came out at 0.123.

Take G45U G71A G93A: the “polymerase ribozyme fitness (log ratio)” value was -2.09.

In the case of G113C G122U, the “polymerase ribozyme fitness (log ratio)” value is -1.42.

Regarding C104A A108G U112A A118G G122U, the “polymerase ribozyme fitness (log ratio)” value is -5.36.

As to A6G A41U C70U C124A, the “polymerase ribozyme fitness (log ratio)” value is -0.611.

As to G17U A29G A37U U112G, the “polymerase ribozyme fitness (log ratio)” value is -3.31.

For C8U U14G G17A A119G, the “polymerase ribozyme fitness (log ratio)” value was -0.996.

Consider U14A C49U G60A A100U U106A, for which the “polymerase ribozyme fitness (log ratio)” value was -3.83.

For C82U U112A, the “polymerase ribozyme fitness (log ratio)” value worked out at 1.08.

Take G48C C72U A90G U132A: the “polymerase ribozyme fitness (log ratio)” value was -0.935.

A50C G93U U112G: the “polymerase ribozyme fitness (log ratio)” value was -2.03.

A5U C13G C40U U55A U59A C82G: the “polymerase ribozyme fitness (log ratio)” value is -2.63.

On to C40U A46G U78G, for which the “polymerase ribozyme fitness (log ratio)” value is -0.597.

For G71U C89U C101U C123U G128C, the “polymerase ribozyme fitness (log ratio)” value is -1.14.

A5C G19A C89A C124G: the “polymerase ribozyme fitness (log ratio)” value was -1.76.

As to G42C C82U, the “polymerase ribozyme fitness (log ratio)” value was -1.49.

As for U21A G39U, the “polymerase ribozyme fitness (log ratio)” value is -1.5.
